Experimental data published in IntAct's records for PubMed 18342605.

How the values were obtained:
pp12_yeast GLC7 = pp12_yeast GLC7 (UniProt P32598)
nab3_yeast NAB3 = nab3_yeast NAB3 (UniProt P38996)
Sequence of UniProt P38996 (P38996 whole entry): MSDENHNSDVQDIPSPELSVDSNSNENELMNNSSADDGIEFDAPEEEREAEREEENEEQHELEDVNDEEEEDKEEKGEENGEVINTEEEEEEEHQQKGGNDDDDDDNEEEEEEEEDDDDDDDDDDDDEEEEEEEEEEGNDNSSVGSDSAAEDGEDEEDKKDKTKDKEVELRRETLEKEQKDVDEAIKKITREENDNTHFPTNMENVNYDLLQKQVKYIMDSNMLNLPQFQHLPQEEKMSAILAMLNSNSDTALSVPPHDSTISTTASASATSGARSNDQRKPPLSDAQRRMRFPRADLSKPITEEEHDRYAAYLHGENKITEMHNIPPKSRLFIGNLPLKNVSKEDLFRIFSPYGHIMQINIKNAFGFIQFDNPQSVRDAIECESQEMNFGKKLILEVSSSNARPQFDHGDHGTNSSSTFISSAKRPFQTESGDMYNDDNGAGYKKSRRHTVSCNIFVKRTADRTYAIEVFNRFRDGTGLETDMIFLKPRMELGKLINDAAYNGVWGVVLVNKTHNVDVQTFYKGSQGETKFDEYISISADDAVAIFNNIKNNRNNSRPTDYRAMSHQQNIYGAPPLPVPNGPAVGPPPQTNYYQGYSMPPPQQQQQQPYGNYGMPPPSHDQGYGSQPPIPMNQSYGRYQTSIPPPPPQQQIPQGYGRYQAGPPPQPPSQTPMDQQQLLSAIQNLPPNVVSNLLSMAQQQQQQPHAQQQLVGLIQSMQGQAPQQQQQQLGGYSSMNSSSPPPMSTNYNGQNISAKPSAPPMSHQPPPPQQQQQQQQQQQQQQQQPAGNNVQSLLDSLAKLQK

Sequence of UniProt P32598 (P32598 whole entry): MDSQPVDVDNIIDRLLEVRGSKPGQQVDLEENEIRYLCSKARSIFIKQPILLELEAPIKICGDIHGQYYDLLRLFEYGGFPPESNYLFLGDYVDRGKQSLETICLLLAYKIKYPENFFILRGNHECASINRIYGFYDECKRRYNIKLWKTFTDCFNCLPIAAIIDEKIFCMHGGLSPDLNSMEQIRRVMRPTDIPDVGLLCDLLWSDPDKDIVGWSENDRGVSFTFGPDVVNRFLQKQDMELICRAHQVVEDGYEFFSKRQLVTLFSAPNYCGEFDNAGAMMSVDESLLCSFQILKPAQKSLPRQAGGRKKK

## Helicase SEN1 (Saccharomyces cerevisiae), Q00416 F2003A
pp12_yeast GLC7
  effect of a mutation on the interaction: disrupting interaction strength
nab3_yeast NAB3
  effect of a mutation on the interaction: with no effect

## Helicase SEN1 (Saccharomyces cerevisiae), Q00416 K1999A
pp12_yeast GLC7
  effect of a mutation on the interaction: with no effect
nab3_yeast NAB3
  effect of a mutation on the interaction: with no effect
